Usually IC50 stands for the midpoint of a concentration-inhibition curve. Read a high IC50 as a need for much substance.

Like-named read-outs stand apart in the source and are kept apart here. Where only a bound is given, the exact number is not on record here.

The values below come from US20080027145A1 (published 2008).

Assay [1] concerns the target T1, human Bcl-w ΔC29 (C29S A128E) (human, UniProt Q92843 1-164).
T1 construct: range 1-164; residues 1-209), which are those of Bcl-xL; also called hBcl-w
T1 sequence: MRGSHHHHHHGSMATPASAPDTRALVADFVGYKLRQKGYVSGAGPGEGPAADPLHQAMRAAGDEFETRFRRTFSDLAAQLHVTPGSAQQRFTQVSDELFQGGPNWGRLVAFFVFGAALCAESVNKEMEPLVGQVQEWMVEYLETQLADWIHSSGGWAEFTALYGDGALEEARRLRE
Briefly: solution competition on Biacore.

In assay [2] the target is T2, human Bcl-2 ΔC22 (human, UniProt P10415 1-217).
T2 construct: Recombinant, bacterial, N-terminal HexaHis fusion; hydrophobic C-terminus removed; also called hBcl-2
T2 sequence (P10415 other isoform, or with tags, fused parts or gaps mutant limits assumed): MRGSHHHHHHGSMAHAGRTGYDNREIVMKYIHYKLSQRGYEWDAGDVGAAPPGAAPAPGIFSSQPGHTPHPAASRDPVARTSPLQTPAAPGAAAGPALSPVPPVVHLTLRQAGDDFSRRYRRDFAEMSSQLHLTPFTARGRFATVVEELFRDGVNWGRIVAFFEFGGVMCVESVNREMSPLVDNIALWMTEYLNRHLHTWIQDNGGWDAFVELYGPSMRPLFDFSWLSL
Briefly: solution competition on Biacore.

Assay [3] addresses T3, human Bcl-xL ΔC24 (human, UniProt Q07817 1-209).
T3 construct: Expressed as GST fusion and cleaved off the glutathione column; also called hBcl-xL ΔC24
Briefly: solution competition on Biacore. (In general: SPR reads the build-up and loss of mass on a sensor chip optically.)

Assay [4] addresses T4, FLAG-tagged mouse Mcl-1 (full-length) (mouse, UniProt P97287 1-331).
T4 construct: whole, on cells; Full-length, expressed in 293T cells, precipitated from lysates; also called FLAG-Mcl-1; Mcl-1 (in cells)
Put plainly: co-immunoprecipitation from 293T lysates, 35S fluorography (D) and immunoblot of the same filters (E) [E]. The text has this: (§1) Equivalent ³⁵S-labeled lysates harvested from 293T cells were immunoprecipitated with antibodies to the HA, FLAG (FL) or control (C) tags.
(§2) The maintenance, transfection and metabolic labeling of the human embryonic kidney (HEK) 293T cells with ³⁵S-methionine/cysteine (NEN) as well as co-immunoprecipitation have been described (Huang et al., Supra; Moriishi et al., Proc Natl Acad Sci USA 96:9683-9688, 1999; O'Conner et al., Supra). Briefly, equivalent TCA-precipitable lysates were immunoprecipiated using the mouse monoclonal antibodies to HA (HA.11; CRP), FLAG (M2; Sigma) and control Glu-Glu (CRP) tags. The proteins were resolved by SDS:PAGE, transferred onto nitrocellulose membranes and detected by fluorography (Amplify; Amersham Biosciences).

The target of assay [5] is T1, human Bcl-w ΔC29 (C29S A128E). Briefly: Biacore solution competition against immobilised mouse wtBimBH3. The text has this: (§3) The baseline response (control channel) was subtracted to obtain the absolute binding response. […] Theoretically, IC50=[A]/2+KD, where [A] is the analyte concentration.
(§4) To assess if other BH3 peptides bind pro-survival proteins similarly, we directly compared their binding affinities in solution using a competitive binding assay. […] As the IC50 values reflect relative binding affinities (see Experimental Procedures), we used this assay to compare the binding affinities of eight BH3 peptides (Table 3) to the five pro-survival proteins.

Assay [6] addresses T2, human Bcl-2 ΔC22. Described as above.
Excerpt: as §3, §4

Assay [7] has as its target T3, human Bcl-xL ΔC24. Described as above.
Excerpt: as §3, §4

Assay [8] deals with T5, FLAG-tagged human Bcl-xL (full-length) (human, UniProt Q07817 1-233).
T5 construct: whole, on cells; Full-length, expressed in 293T cells, precipitated from lysates; also called FLAG-Bcl-xL; Bcl-xL (in cells)
T5 sequence (Q07817 other isoform, or with tags, fused parts or gaps): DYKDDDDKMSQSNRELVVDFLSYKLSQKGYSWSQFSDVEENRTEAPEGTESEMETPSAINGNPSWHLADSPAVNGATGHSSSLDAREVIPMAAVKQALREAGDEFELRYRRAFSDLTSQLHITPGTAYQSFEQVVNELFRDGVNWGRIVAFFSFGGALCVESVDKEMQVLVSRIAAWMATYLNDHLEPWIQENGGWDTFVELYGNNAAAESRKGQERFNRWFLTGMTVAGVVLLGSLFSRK
Briefly: co-immunoprecipitation from 293T lysates, 35S fluorography (F) and immunoblot of the same filters (G) [G].
Excerpt: as §1, §2
(In general: In western blotting, separated proteins are transferred to a membrane and probed.)

For assay [9], the target named is T6, FLAG-tagged human Bcl-2 (full-length) (human, UniProt P10415 1-239).
T6 construct: whole, on cells; Full-length, expressed in 293T cells, precipitated from lysates; also called FLAG-Bcl-2; Bcl-2 (in cells)
T6 sequence (P10415 other isoform, or with tags, fused parts or gaps): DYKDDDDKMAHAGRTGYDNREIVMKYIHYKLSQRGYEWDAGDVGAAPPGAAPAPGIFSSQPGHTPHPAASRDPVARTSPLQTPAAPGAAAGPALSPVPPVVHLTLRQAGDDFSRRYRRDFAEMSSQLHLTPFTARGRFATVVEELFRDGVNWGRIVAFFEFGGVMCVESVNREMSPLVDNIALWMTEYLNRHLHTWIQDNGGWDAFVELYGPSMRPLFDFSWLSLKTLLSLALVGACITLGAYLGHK
Described as above.
Excerpt: as §1, §2

Assay [10] deals with T3, human Bcl-xL ΔC24. Briefly: Biacore solution competition against immobilised mouse wtBimBH3. The text has this:
FIG. 1 is a graphical representation showing competitive binding assays. […] (C) Solution competition assay. […] The line (at 430 s) indicates the response used for calculating the IC50. […] (Irregular responses after 500 s are due to washing the chips after analyte dissociation). Color reproductions are available from the patentees on request.
The baseline response (control channel) was subtracted to obtain the absolute binding response.
The source holds these as a separate data set.

Assay [11] concerns the target T3, human Bcl-xL ΔC24. Briefly: solution competition on Biacore, immobilised m wtBimBH3.
Excerpt: as §3

For assay [12], the target named is T3, human Bcl-xL ΔC24. Briefly: SPR direct binding, protein over immobilised NoxaBH3. The method, then: Affinity measurements were performed at room temperature on a Biacore 3000 biosensor (Biacore) with HBS (10 mM HEPES pH 7.2, 150 mM NaCl, 3.4 mM EDTA, 0.005% Tween 20) as the running buffer. […] Residual bound proteins were desorbed with 50 mM NaOH or 6 M GuHCl (pH 7.2), followed by two washes with running buffer. Binding kinetics were derived from sensorgrams, following subtraction of baseline responses, using BIA evaluation software (version 3, Biacore) (Wilson-Annan et al., Supra).

Assay [13] addresses T1, human Bcl-w ΔC29 (C29S A128E). Briefly: Biacore solution competition against immobilised mouse wtBimBH3.
Excerpt: as §3
This is another data set of the same source.

Assay [14] concerns the target T2, human Bcl-2 ΔC22. Described as above.
Excerpt: as §3
The source holds these as a separate data set.

In assay [15] the target is T3, human Bcl-xL ΔC24. Put plainly: solution competition on Biacore (FIG. 9C).
Excerpt: as §3

The target in assay [16] is T3, human Bcl-xL ΔC24. Put plainly: solution competition on Biacore (IC50 ratio).
The target of assay [17] is T1, human Bcl-w ΔC29 (C29S A128E). Put plainly: solution competition on Biacore (FIG. 9C).
Excerpt: as §3

T3 sequence (Q07817 other isoform, or with tags, fused parts or gaps mutant limits assumed): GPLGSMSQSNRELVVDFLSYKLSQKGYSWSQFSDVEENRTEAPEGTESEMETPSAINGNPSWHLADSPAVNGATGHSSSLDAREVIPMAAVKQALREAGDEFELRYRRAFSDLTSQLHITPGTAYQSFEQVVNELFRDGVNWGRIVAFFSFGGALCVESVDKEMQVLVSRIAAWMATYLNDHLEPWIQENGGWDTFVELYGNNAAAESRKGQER
T4 sequence (P97287 other isoform, or with tags, fused parts or gaps): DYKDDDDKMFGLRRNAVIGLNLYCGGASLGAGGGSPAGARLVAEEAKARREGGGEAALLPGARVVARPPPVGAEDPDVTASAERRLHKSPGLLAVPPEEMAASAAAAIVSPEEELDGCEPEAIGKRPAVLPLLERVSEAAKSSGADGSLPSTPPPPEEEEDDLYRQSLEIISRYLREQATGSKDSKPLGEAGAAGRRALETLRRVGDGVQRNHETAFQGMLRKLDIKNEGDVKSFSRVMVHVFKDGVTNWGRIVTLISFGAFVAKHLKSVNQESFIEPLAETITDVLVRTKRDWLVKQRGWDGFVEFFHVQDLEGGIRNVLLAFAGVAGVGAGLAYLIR

As to RAELPPEFAAQLRKIGDKVYCTWSAP (also called mouse Noxa BH3 peptide 1) [m Noxa1 (16-41) BH3 peptide], the binding result (in assay [1]; with human Bcl-2 ΔC22 [2]; with human Bcl-xL ΔC24 [3]) was “no binding” in each case.

B1: HA-tagged full-length mouse Bad (other)
chain: YPYDVPDYAMGTPKQPSLAPAHALGLRKSDPGIRSLGSDAGGRRWRPAAQSMFQIPEFEPSEQEDASATDRGLGPSLTEDQPGPYLAPGLLGSNIHQQGRAATNSHHGGAGAMETRSRHSSYPAGTEEDEGMEEELSPFRGRSRSAPPNLWAAQRYGRELRRMSDEFEGSFKGLPRPKSAGTATQMRQSAGWTRIIQSWWDRNLGKGGSTPSQ
notes: whole, on cells; also called HA-Bad; Bad (in cells)
Take B1: the binding result in [4] is listed as “no binding”.
Consider DIIRNIARHLAQVGDSMDRSIPPG (also called BidBH3) [Bid (81-104) BH3 peptide, human], for which the IC50 in assay [5] was 40 nM; with human Bcl-2 ΔC22 [6], 6800 nM; with human Bcl-xL ΔC24 [7] it was 82 nM.

B2: HA-tagged full-length mouse Noxa (other)
chain: YPYDVPDYAMPGRKARRNAPVNPTRAELPPEFAAQLRKIGDKVYCTWSAPDITVVLAQMPGKSQKSRMRSPSPTRVPADLKDECAQLRRIGDKVNLRQKLLNLISKLFNLVT
notes: whole, on cells; also called HA-Noxa; Noxa (full-length mouse Noxa bearing two BH3s)
Take B2: the binding result in assay [8] and in assay [9] was “no binding” each time.
For NLWAAQRYGRELRRMSDEFVDSFKKG (also called BadBH3) [Bad (103-128) BH3 peptide, human], the IC50 in [5] turned out to be 30 nM; with human Bcl-2 ΔC22 [6], 16 nM; in the assay with human Bcl-xL ΔC24 [7], 5.3 nM.

B3: m Noxa2 (68-93) BH3 peptide (peptide)
peptide: PADLKDECAQLRRIGDKVNLRQKLLN
notes: also called mNoxa B; mouse Noxa BH3 peptide 2
In the case of B3, the binding result (in assay [1]; with human Bcl-2 ΔC22 [2]; with human Bcl-xL ΔC24 [3]) was “no binding” each time.
HRAEVQIARKLQCIADQFHRLHTQ (also called BmfBH3) [m Bmf (128-151) BH3 peptide]: the results for the IC50 (in assay [5]; with human Bcl-2 ΔC22 [6]; in the assay with human Bcl-xL ΔC24 [7]) were 9.8 nM, 3 nM and 9.7 nM, respectively.

B4: Hrk (26-51) BH3 peptide, human (peptide)
peptide: not shown
notes: also called HrkBH3
As for B4, the figures for the IC50 (in assay [5]; with human Bcl-2 ΔC22 [6]; with human Bcl-xL ΔC24 [7]) were 49 nM, 320 nM and 3.7 nM, respectively.
As to MEGSDALALRLACIGDEMDVSLRAP (also called BikBH3; hBik) [Bik (51-75) BH3 peptide, human], the “IC50 (read off the curve)” value with human Bcl-xL ΔC24 [10] was roughly 40 nM. The half-inhibitory concentration (IC50) in assay [5] amounted to 12 nM; in the assay with human Bcl-xL ΔC24 [7] it was 43 nM.
Regarding PAELEVECATQLRRFGDKLNFRQKLL (also called NoxaBH3; wt NoxaBH3) [Noxa (18-43) BH3 peptide, human], the IC50 (in the assay with human Bcl-xL ΔC24 [11]; in assay [5]; with human Bcl-2 ΔC22 [6]; with human Bcl-xL ΔC24 [7]) was greater than 100000 nM each time. Further, the binding result with human Bcl-xL ΔC24 [12] was “no binding”.
Turning to PAELEVECATQLRRFGDELNFRQKLL (also called Noxa m1; K35E) [Noxa (18-43) mt1], in assay [13], the binding result is recorded as “binds”. Moreover, the figures for the IC50 with human Bcl-2 ΔC22 [14] and in the assay with human Bcl-xL ΔC24 [11] were greater than 100000 nM and 5800 nM, respectively. For the same molecule, in the assay with human Bcl-xL ΔC24 [15], the “fold increase of binding against wt NoxaBH3” value was greater than 20 fold. Further, the “fold tighter than the wild-type peptide” value with human Bcl-xL ΔC24 [16] is no less than 17 fold.

B5: Noxa (18-43) mt3 (peptide)
peptide: PAELEVECATQLRRIGDELNFRQKLL
notes: also called Noxa m3 (peptide); double mutant K35E F32I
Take B5: the binding result in the assay with human Bcl-2 ΔC22 [14] is “binds”. Also, the IC50 was 110 nM in the assay with human Bcl-xL ΔC24 [11], 410 nM in assay [17] and 100 nM with human Bcl-xL ΔC24 [3].
As to PAELEVECATQLRRIGDKLNFRQKLL (also called Noxa m2; F32I) [Noxa (18-43) mt2], the binding result in [13] is “binds”. For the same molecule, the concentration for half-maximal inhibition (IC50) is greater than 100000 nM with human Bcl-2 ΔC22 [14] and 1100 nM with human Bcl-xL ΔC24 [11]. Moreover, in the assay with human Bcl-xL ΔC24 [15], the “fold increase of binding against wt NoxaBH3” value was greater than 100 fold. Also, the “fold tighter than wild type” value with human Bcl-xL ΔC24 [16] is no less than 90 fold.
